Measurements: article PMC7954794, “Protein context shapes the specificity of SH3 domain-mediated interactions in vivo” (Nature Communications, 2021)

Test system: Abp1 PPIs
Assay: DHFR-PCA of Abp1 SH3-swapped baits (Fig. 2B-D, S2C, S2F);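 for Protein-protein interaction distance between Abp1 SH3-swapped baits, to ABP1: Euclidean distance between DHFR-PCA score profiles of the baits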;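 for Protein-protein interaction distance between Abp1 SH3-swapped baits, to BEM1-2: Euclidean distance between DHFR-PCA score profiles of the baits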;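 for Protein-protein interaction distance between Abp1 SH3-swapped baits, to BOI1: Euclidean distance between DHFR-PCA score profiles of the baits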;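 for Protein-protein interaction distance between Abp1 SH3-swapped baits, to BZZ1-1: Euclidean distance between DHFR-PCA score profiles of the baits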
Format: cell-based, Saccharomyces cerevisiae
Outline: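 Yeast DHFR-PCA in which Abp1 baits, carrying their SH3 replaced by CRISPR–Cas9 with one of 27 yeast SH3s or human CTTN, HCLS1 or DBNL SH3s, were mated against 575 SH3-associated DHFR F[3] preys plus 40 negative controls. Four tests were run per PPI. Diploids were selected twice (48 h, 30 °C), then grown 4 days on PCA selection media.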

B1: YSC84 (protein, UniProt P32793 1-468, looked up)
Protein YSC84: MGINNPIPRSLKSETKKAAKVLRSFVKPNQVFGADQVIPPYVLKRAKGLAIITVLKAGFLFSGRAGSGVIVARLKDGTWSAPSAIAMAGAGAGGMVGVELTDFVFILNSEEAVRSFSEFGTITLGGNVSVSAGPLGRSAEAAASASTGGVSAVFAYSKSKGLFAGVSVEGSAILERREANRKFYGDNCTSKMILSGRVKVPPAADPLLRILESRAFNFTRHDHDDNASGDDFYDDGQYSDNTSHYYDDIPDSFDSTDESSTRPNTRSSRRRGMSLGSRSRYDDDYDDDGYGRGRGYGDFDSEDEDYDYGRSPNRNSSRNRGPQIDRGTKPRANTRWEDDLYDRDTEYSRPNHSGRDYDNTRGNRRGYGRERGYSLGHGPTHPSNMSNVDDLSHKMSKTGLGNESTATNSATPTAVALYNFAGEQPGDLAFKKGDVITILKKSDSQNDWWTGRTNGKEGIFPANYVRVS
- Protein-protein interaction distance between Abp1 SH3-swapped baits, to ABP1 (Abp1 bait with swapped SH3, distance to bait with ABP1 SH3, sheet Fig2C): 13.97
- Protein-protein interaction distance between Abp1 SH3-swapped baits, to BBC1 (distance to Abp1 bait with BBC1 SH3, sheet Fig2C): 14.14
- Protein-protein interaction distance between Abp1 SH3-swapped baits, to BEM1-1 (distance to Abp1 bait with BEM1-1 SH3, sheet Fig2C): 19.6
- Protein-protein interaction distance between Abp1 SH3-swapped baits, to BEM1-2 (distance to Abp1 bait with BEM1-2 SH3, sheet Fig2C): 36.26
- Protein-protein interaction distance between Abp1 SH3-swapped baits, to BOI1 (distance to Abp1 bait with BOI1 SH3, sheet Fig2C): 16.61
- Protein-protein interaction distance between Abp1 SH3-swapped baits, to BOI2 (distance to Abp1 bait with BOI2 SH3, sheet Fig2C): 20.04
- Protein-protein interaction distance between Abp1 SH3-swapped baits, to BUD14 (distance to Abp1 bait with BUD14 SH3, sheet Fig2C): 22.52
- Protein-protein interaction distance between Abp1 SH3-swapped baits, to BZZ1-1 (distance to Abp1 bait with BZZ1-1 SH3, sheet Fig2C): 11.3
- Protein-protein interaction distance between Abp1 SH3-swapped baits, to BZZ1-2 (distance to Abp1 bait with BZZ1-2 SH3, sheet Fig2C): 16.58
- Protein-protein interaction distance between Abp1 SH3-swapped baits, to CDC25 (distance to Abp1 bait with CDC25 SH3, sheet Fig2C): 30.76
- Protein-protein interaction distance between Abp1 SH3-swapped baits, to CTTN (distance to Abp1 bait with CTTN SH3, sheet Fig2C): 17.19
- Protein-protein interaction distance between Abp1 SH3-swapped baits, to CYK3 (distance to Abp1 bait with CYK3 SH3, sheet Fig2C): 31.42
- Protein-protein interaction distance between Abp1 SH3-swapped baits, to DBNL (distance to Abp1 bait with DBNL SH3, sheet Fig2C): 11.44
- Protein-protein interaction distance between Abp1 SH3-swapped baits, to FUS1 (distance to Abp1 bait with FUS1 SH3, sheet Fig2C): 23.88
- Protein-protein interaction distance between Abp1 SH3-swapped baits, to HCLS1 (distance to Abp1 bait with HCLS1 SH3, sheet Fig2C): 11.3
- Protein-protein interaction distance between Abp1 SH3-swapped baits, to HOF1 (distance to Abp1 bait with HOF1 SH3, sheet Fig2C): 34.92
- Protein-protein interaction distance between Abp1 SH3-swapped baits, to HSE1 (distance to Abp1 bait with HSE1 SH3, sheet Fig2C): 12.83
- Protein-protein interaction distance between Abp1 SH3-swapped baits, to LSB1 (distance to Abp1 bait with LSB1 SH3, sheet Fig2C): 3.911
- Protein-protein interaction distance between Abp1 SH3-swapped baits, to LSB3 (distance to Abp1 bait with LSB3 SH3, sheet Fig2C): 3.425
- Protein-protein interaction distance between Abp1 SH3-swapped baits, to MYO3 (distance to Abp1 bait with MYO3 SH3, sheet Fig2C): 9.995
- Protein-protein interaction distance between Abp1 SH3-swapped baits, to MYO5 (distance to Abp1 bait with MYO5 SH3, sheet Fig2C): 8.128
- Protein-protein interaction distance between Abp1 SH3-swapped baits, to NBP2 (distance to Abp1 bait with NBP2 SH3, sheet Fig2C): 21.76
- Protein-protein interaction distance between Abp1 SH3-swapped baits, to PEX13 (distance to Abp1 bait with PEX13 SH3, sheet Fig2C): 7.848
- Protein-protein interaction distance between Abp1 SH3-swapped baits, to PIN3 (distance to Abp1 bait with PIN3 SH3, sheet Fig2C): 5.862
- Protein-protein interaction distance between Abp1 SH3-swapped baits, to RVS167 (distance to Abp1 bait with RVS167 SH3, sheet Fig2C): 8.283
- Protein-protein interaction distance between Abp1 SH3-swapped baits, to SDC25 (distance to Abp1 bait with SDC25 SH3, sheet Fig2C): 36.86
- Protein-protein interaction distance between Abp1 SH3-swapped baits, to SHO1 (distance to Abp1 bait with SHO1 SH3, sheet Fig2C): 12.33
- Protein-protein interaction distance between Abp1 SH3-swapped baits, to SLA1-1 (distance to Abp1 bait with SLA1-1 SH3, sheet Fig2C): 33.18
- Protein-protein interaction distance between Abp1 SH3-swapped baits, to SLA1-2 (distance to Abp1 bait with SLA1-2 SH3, sheet Fig2C): 24.17
- Protein-protein interaction distance between Abp1 SH3-swapped baits, to SLA1-3 (distance to Abp1 bait with SLA1-3 SH3, sheet Fig2C): 6.014
- Protein-protein interaction distance between Abp1 SH3-swapped baits, to YSC84 (distance to Abp1 bait with YSC84 SH3, sheet Fig2C): 0.00

B2: WT (protein, UniProt P15891 2-592, looked up)
Actin-binding protein: ALEPIDYTTHSREIDAEYLKIVRGSDPDTTWLIISPNAKKEYEPESTGSSFHDFLQLFDETKVQYGLARVSPPGSDVEKIIIIGWCPDSAPLKTRASFAANFAAVANNLFKGYHVQVTARDEDDLDENELLMKISNAAGARYSIQTSSKQQGKASTPPVKKSFTPSKSPAPVSKKEPVKTPSPAPAAKISSRVNDNNDDDDWNEPELKERDFDQAPLKPNQSSYKPIGKIDLQKVIAEEKAKEDPRLVQKPTAAGSKIDPSSDIANLKNESKLKRDSEFNSFLGTTKPPSMTESSLKNDDDKVIKGFRNEKSPAQLWAERKAKQNSGNAETKAEAPKPEVPEDEPEGEPDVKDLKSKFEGLAASEKEEEEMENKFAPPPKKSEPTIISPKPFSKPQEPVKAEEAEQPKTDYKKIGNPLPGMHIEADNEEEPEENDDDWDDDEDEAAQPPLPSRNVASGAPVQKEEPEQEEIAPSLPSRNSIPAPKQEEAPEQAPEEEIEEEAEEAAPQLPSRSSAAPPPPPRRATPEKKPKENPWATAEYDYDAAEDNELTFVENDKIINIEFVDDDWWLGELEKDGSKGLFPSNYVSLGN
- Interactions in Abp1 (number of interactions of Abp1 carrying the named SH3, sheet FigS2A-B): 80
